Measurements taken from patent publication US20070014810A1 (published 2007).

Biological target: T1, HLA-A*2601 (human)
T1 construct: purified HLA molecule
Test: inhibition of 125I-labelled probe peptide binding to purified HLA, gel filtration; standard peptide

ETFGFEIQSY [standard peptide ETFGFEIQSY] gave an IC50 of 1 nM.
